Test results taken from PMC8744954.

Key:
Jun (Homo sapiens) = Jun (Homo sapiens) (UniProt P05412); conditions: cited from earlier work
[1] = target: p53 proteins tested (wild type p53 and 46 common clinical mutants); assay: SPR; NAPPA-SPRi: p53 proteins with GST-E-coil translated in situ and captured by K-coil peptide on a gold slide; purified full-length MDM2 20 μg/mL injected at 3 μL/s; running buffer 1x PBS, 1% Tween 20; 1:1 fit with Scrubber 2.0; apparent constants

Sequence of UniProt P05412 (P05412 whole entry): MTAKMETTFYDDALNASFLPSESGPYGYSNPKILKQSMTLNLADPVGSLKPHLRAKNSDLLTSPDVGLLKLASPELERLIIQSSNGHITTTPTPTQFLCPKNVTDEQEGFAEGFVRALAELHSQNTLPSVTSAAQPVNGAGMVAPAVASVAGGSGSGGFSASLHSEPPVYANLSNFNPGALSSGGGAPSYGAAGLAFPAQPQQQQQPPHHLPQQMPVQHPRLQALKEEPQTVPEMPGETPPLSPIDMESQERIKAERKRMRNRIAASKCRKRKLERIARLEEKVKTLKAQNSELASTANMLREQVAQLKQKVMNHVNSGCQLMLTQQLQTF

Kd [1] [nM]	median KD [1] [nM]	Substance	Kd (Jun (Homo sapiens)) [nM]
–	–	Fos (from UniProt P01100)	1
2.85 to 1350	105	MDM2, full-length purified recombinant (from UniProt Q00987 1-491) (natural protein)	–
